Several values for one entry are separate records, joined by “and”; a condition that tells them apart may be missing. Equal values may be shown once.
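Also: lentiviral eGFP-IRES-mCherry reporter pool sorted by FACS 96 h post-transduction, gated on mCherry-high cells, Illumina read counts normalized per million, median across four biological replicates.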

The data set relates to HEK293T. The data set can be described thus: median enrichment of reporter reads in eGFP-reduced (low/intermediate) vs eGFP-high sorted cells (eGFP-extension fusion abundance) (ratio); higher = stronger loss of eGFP-fusion protein abundance (more destabilising extension).
CGIII [SRGAP2]: the median enrichment came out at 1.59.

As to “LWRSLVRRQDFSGLCLNGPHLNFSPFFLFLALGKASFYQTYRERKLQG [CTCF]”, the median enrichment worked out at 9.53.

Consider “YLEQMETPWGAGSGSPAPSQTLQCQKQQQNETQPPPTTATTRRMIQQVFLKN [GRIA1]”, for which the median enrichment worked out at 2.38.

For the substance YPWALPCYPFSPLEVPNLLHPLPLL [PPRC1], the median enrichment was found to be 3.39.

For LRRIQICVCVCVCVCVCVCVCVSLCLCIG [KIFC1], the median enrichment is 24.3.

In the case of LQGPLDL [OR56A3], the median enrichment was 0.31.

With PPPPPP [Pro06], the median enrichment came to 0.323.

Turning to VVVVV [Val05], the median enrichment worked out at 10.3.

With KFFRMQPGGTWI [DCAF4L2], the median enrichment is 2.96.

Consider “LAAGVAMMGWSSLGQGVLGPTPTPPPRHHFPSRFLRLDLGSPLPVMHSCPGPTSPSLTSLELWPPRKGPIQPRLFTEVVLFMK [SCN1B]”, for which the median enrichment is 4.89.

Take YGFLGFPSWACLLKA [CSF3R]: the median enrichment turned out to be 5.35.

Regarding “SGLSDCPCPAHHPVTATPKPTPTGAHCPTPAPGRHPAGHFTCCH [FERMT3]”, the median enrichment was 1.55.

As for LNFHTEF [TP53BP2], the median enrichment was 0.758.

Consider YWELLWQVPPE [C1orf115], for which the median enrichment amounted to 3.92.

On to EEEEEEEEE [Glu09], for which the median enrichment was 0.433.

As for CIFFYQEG [PTEN], the median enrichment is 6.73 and 8.49.

“LEHWDAHRPFPSAARRACCGIYCGEHCIGMSGKSLYNLLQPSHLYNSLILFSFHNKMVYKNRSVCDVIGSNHPVLSSHSSW [COX10]”: the median enrichment worked out at 1.73.

Turning to “SAGPWDTAFSFARLSACRPGGEPGPANESLVYLGCNSLKVQSFGLQSCPGPGSPGHCCSPRPWALVFLQHHTCCPFSISVCVK [MYO1F]”, the median enrichment was determined as 7.3.

“LVLDKREAWKTPHASYHTSVLWLLSFEVLYCNLLICMECAYFLKGY [MED6]”: the median enrichment came to 7.75.

For the substance “SVFGKQQRASPLPGGLPCRFWASFPCLSLFRCAFHL [MAP2K1]”, the median enrichment turned out to be 12.4.

With SPYRKAGRL [BCKDHB], the median enrichment turned out to be 19.5.

On to YFFHKIC [CCDC102B], for which the median enrichment worked out at 10.6.

As for RSWPPLIYSTSLAPHLH [TNFRSF6B], the median enrichment was found to be 8.26.

Regarding “QLYVGLSLEYVWSPGLSRLEQQSLLLAYHRD [ZFYVE21]”, the median enrichment is 9.76.

On to “KAAWPQYGPLFAGFSSSLEPPSVGGPPISPLKPALLFWGDPLLLSFPKHGVPWPAFFLCLWWGWGGLFLLAPSGGGGQVTRSG [JUP]”, for which the median enrichment turned out to be 4.75.

For the substance YPGGRVAAGGACAEAS [SLC7A5], the median enrichment worked out at 1.04.

In the case of YGEKIRNGCCT [WDR64], the median enrichment was 0.76.

As for RLYRLRR [ST3GAL6], the median enrichment came out at 10.7.

For “SCSNGKMALFKPGPPIGQTQQQTRGQGSPVALSIEDRFLGSRRGWRKLKAGE [BTN3A2]”, the median enrichment was 5.24.

In the case of LFSSQLF [ADAM17], the median enrichment came out at 5.62.

In the case of “LPSTCPWGQEHPRPQKRERKGQKKEEKKNVQKDFRSSHSYF [TOB2]”, the median enrichment was 0.26.

For YKRSLADPSL [KCNQ3], the median enrichment came to 0.769.

On to QPWQ [ADGRL3], for which the median enrichment came to 0.354.

Regarding YKPRDGGCLAMAGR [DMRTC2], the median enrichment was determined as 0.676.

Take WLYLRFEAGKPDR [UGT2B10]: the median enrichment was 6.76.

Regarding YFFI [ATP2B1], the median enrichment turned out to be 9.67.

Regarding “SDLVQHGNDSYRLIQQLTLRQVVLFQRPLFLPKPCYELNQMCQVFSGVLSNILFSCMGTSPLQMTMLMDLFIYLFKSLFS [IFNA8]”, the median enrichment is 8.28.

In the case of LFDDRDLH [VAMP4], the median enrichment worked out at 0.625.

As to QALGKKDCNQRKSIGVEEIKLTLFWLFF [GLI3], the median enrichment turned out to be 25.8.

For EHVGSVPTQCFGKCKI [DNAH5], the median enrichment is 0.681.

Consider LGRIMASFQNSFS [OR2AG1], for which the median enrichment came to 7.84.

In the case of WSICLLNDTSLIYCTIS [RTCA], the median enrichment worked out at 12.5.

LRISQG [ESRRB]: the median enrichment is 1.67.

Turning to LLAL [MS4A5], the median enrichment worked out at 7.23.

Regarding SISPSC [OR5AK2], the median enrichment is 0.461.

For WETA [FAXDC2], the median enrichment is 0.459.

For the substance RGPSETVYALTST [KDELR3], the median enrichment was determined as 1.55.

Regarding MMMMMMM [Met07], the median enrichment came to 6.53.

Turning to PPPPPPPPP [Pro09], the median enrichment is 3.45.

“WAPGTAPHCQLPLLGGPGRRVPPSPCQGPGDPLPGCLRLLLRRGNAKKEKEKPRARPLPPAVHCAASSVPGLTVPLSSAPARQ [NRXN2]”: the median enrichment is 6.68.

On to “QTGFLSSLKRLLCLRKSICCVSLASGSRTDLQLPNWILLPRSCSEVSFYHSAL [HLA-DPB1]”, for which the median enrichment stood at 7.45.

As for LANAS [NXF1], the median enrichment was 0.411.

Take WTTNTQRNNLFTTPGCMIEGEASTSTSRGP [TTLL5]: the median enrichment came to 16.4.

With LAPRAEKMLGTHPAPPSTNTSGWGRGRTL [VPS26B], the median enrichment stood at 1.3.

Consider RPPLSPECNKHQIPCVK [POLR2I], for which the median enrichment was 3.52.

Take “LGLLHLPPSYLVPCRAPGLFGGTLGCTSGLPAPAAWAPPS [REEP4]”: the median enrichment is 5.64.

For the substance LSLTALPGANSGT [ANKZF1], the median enrichment is 1.24.

As for LSRL [ESM1], the median enrichment amounted to 10.3.

In the case of RCVHSISEETTHRSFFSLF [GIPC2], the median enrichment is 8.59.

For the substance LACPFCPVGPQAHSGVTEA [TLX1], the median enrichment came out at 6.73.

Regarding YDSLVL [ALDH5A1], the median enrichment came out at 0.258.

Take RPRPGPALPPGAPTCNKCSEAGK [CYBA]: the median enrichment stood at 0.134.

For the substance QFPTSELGNCTHSNPACSAS [MAS1L], the median enrichment came out at 0.296.

In the case of “CPVPARQKEQCQPHQDRWGFESALIWVCLGAPA [SLC37A3]”, the median enrichment was 5.61.

For “RGGSASVPSLTSLGCCFSGVMSPLPLGYLPSTGQGPWWADGN [SFXN3]”, the median enrichment came to 21.3.

On to WATLRSVFPLPPSPHVRRPPPRCSRGS [C19orf57], for which the median enrichment is 15.9.

On to “YLTFPAESVARGKVTIYAEMICLVPILCSTSVFQKFLINKLI [CDCA2]”, for which the median enrichment was found to be 4.06.

For the substance QEKAIWDLITLNRHANTVCVRALCIQ [PCDH9], the median enrichment was determined as 6.25.

For the substance GMSFLDLH [LSM5], the median enrichment was 0.489.

Consider YPSVLHTARGPRMPRPPLAPAGREPDHLPC [CHI3L1], for which the median enrichment was 2.05.

For the substance KEHLWFT [NPAP1], the median enrichment worked out at 1.2.

As to YGRFY [OR5L1], the median enrichment is 1.25.

As for MMMMMMMMM [Met09], the median enrichment is 8.27.

Take SGAKQRHQLLHQKS [SGMS2]: the median enrichment was 0.386.

As to “WHLTNHSTEHTFIFVSAFVLKLSKYIHLCNRNL [ADGRV1]”, the median enrichment worked out at 13.2.

As to MMM [Met03], the median enrichment is 0.831.

Take RLLTHRHNLGH [MMP19]: the median enrichment worked out at 8.57.

Consider WEKN [C12orf65], for which the median enrichment was determined as 0.333.

CETHNFISHSDHRLLNIADRNRSLQGV [TAS2R13]: the median enrichment stood at 2.12.

Turning to “YPAALPGGGGIKRPESPGCPRRDANHPVLSTGPSSLFHPHFC [E2F7]”, the median enrichment was 6.7.

On to LLHMQKDSAIYLKID [APBB2], for which the median enrichment is 11.6.

In the case of “LNKLKMDLFFFNGNRTLCQITSYRNNSLFLTNLVLPYTSTGF [PTEN]”, the median enrichment turned out to be 9.05.

For the substance GGGTGLTF [CARS], the median enrichment was determined as 0.299.

Consider CACPHPPSSLPSC [PADI1], for which the median enrichment worked out at 0.421.

For RCLELCCCQHDLFGA [TPH2], the median enrichment worked out at 5.32.

On to EVNV [CLEC2B], for which the median enrichment worked out at 0.328.

In the case of “PHAQSPPIPHAAPPQSQATSCLLLVGGGLLSPSSLTFNLTLTLHRAPTLHPSWKAGLMASHWPPPPDQSVLFRGLAPFPVSLK [LGALS9]”, the median enrichment was determined as 5.55.

Turning to CATLSVGFFLEDSTLLPHVLSQLQS [CSTF1], the median enrichment worked out at 8.47.

As for LPLPFTLT [ATF6B], the median enrichment was found to be 3.98.

On to “LRSRRDEAASPFSASPPAQGPSGGACRTCPGTVAPQACLSCRVPMAWSLHLTDWSPLPDSHFQKLGGRDTWKTPVTSFLLRA [DPM2]”, for which the median enrichment is 4.89.

As to “AGAQPLPGMRLSADGETATQSFGLCVCVCVCVCVCAHPRVPVCVRILPPGAEVPWVSPLLCNGLLTGAAAPRGLCSGGTQCRM [FGFR3]”, the median enrichment is 6.29.

In the case of “RVSSPTRSLARPLALQLLFGGGIPHSFLGTHSHAHCRSINSNPHFRPKIMRPHLVSTFPRPCSKPNPFLPSGSQNLLSPTATT [RNF39]”, the median enrichment was 6.99.

For “YKPGGSSHSCSQGHWARAAHAQEARFEGICEAAACCCTCAFSLPLPSLSSHGGVRSCPCSESTFPAIPGAGGACASAIPCDQA [TSSK6]”, the median enrichment turned out to be 3.81.

With RAPAVIIQHDAA [PLXNA1], the median enrichment stood at 5.99.

As to FFFFFFFFF [Phe09], the median enrichment is 9.48.

On to LLRG [ARPP19], for which the median enrichment turned out to be 4.64.

On to YPGSFYGHE [ZNF700], for which the median enrichment came to 0.482.

Regarding LELLCFDS [MAP4K3], the median enrichment came to 2.88.

With “CGEPLAWPTNLGFTIQTADWMKLCTFLSLQLPYVESVIFICTFFAT [TAF7L]”, the median enrichment stood at 10.8.

Turning to CCTKDLLF [GNA13], the median enrichment came to 1.47.

In the case of YKL [OR6C2], the median enrichment stood at 0.678.

As for “KKKKKQQVMELHILVTQWTIIGSHWKSGKNPWRLSFSDILPNALLSRIFVSFCLIFWGVFVVVGLFFVFFF [PPP1R12A]”, the median enrichment turned out to be 4.71.

Take “GPWDTAFSFARLSACRPGGEPGPANESLVYLGCNSLKVQSFGLQSCPGPGSPGHCCSPRPWALVFLQHHTCCPFSISVCVKGD [MYO1F]”: the median enrichment was found to be 5.6.

With “LAQLPLSYSSATPQLPLSPAAARATARPGLSSARLTSARPAGLLKAVGRTPA [MED16]”, the median enrichment was found to be 5.35.

Take “SRATGPQQCEGSLAAHPAAGAQPLPGMRLSADGETATQSFGLCVCVCVCVCVCAHPRVPVCVRILPPGAEVPWVSPLLCNGLL [FGFR3]”: the median enrichment turned out to be 6.49.

For SHHQELTHT [NUP88], the median enrichment is 0.49.

For the substance QCITECGHQPRAAW [FOXJ2], the median enrichment was 0.515.

Source of the values: the supplement of paper PMC11502859.
